Experimental data from US12686723 (SHANGHAI ACEMAB, dated 2026).
Numbering of substitutions follows the chain as printed. Values belong to the binder of their own block, whether it stands above or below them.

Assays:
[1] = target: T1, human BCMA antigen (6His tag, product number CC28, Novoprotein) (human, UniProt Q02223 1-54); experiment: SPR, Biacore T200, BCMA-6His on chip, antibody as analyte
T1 construct: Bought reagent; not shown: 6His tag
T1 sequence (looked up): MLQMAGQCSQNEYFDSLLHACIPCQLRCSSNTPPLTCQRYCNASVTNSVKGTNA
Excerpt: Example 8: Affinity Analysis of Anti-Human BCMA Monoclonal Antibody Binding to Human BCMA The kit, consumables and instruments used in this example were purchased from GE Healthcare; According to the instructions provided, human BCMA antigen (6His tag, product number CC28, Novoprotein) is conjugated to the chip surface, and then HBS-EP+ buffer solution is double-diluted to prepare different concentrations of the antibody to be analyzed, and meanwhile set the 0 concentration point and the quality control concentration point; According to the manufacturer's standard setting procedure of Biacore T200, the flow cell that captures ligand is used as the detection channel, the flow cell of un-captured ligand as the reference channel, and the HBS-EP+ buffer solution as the mobile phase, and different concentrations of the antibody solution to be analyzed are injected respectively; The SPR signal is collected by the Biacore T200 Control software, and then the data is processed by the Biacore T200 Evaluation analysis software; Finally, the Ka, Kd and KD values are calculated for the kinetic analysis or steady-state analysis of the obtained kinetic curves, and the results are shown in Table. 2.

[2] = target: T2, commercial recombinant human BCMA protein (Fc tag, Cat. No. CS79, Novoprotein) (human, UniProt Q02223 1-54); experiment: ELISA, BCMA-Fc (CS79) coated on plate, hybridoma supernatant diluted 1:50, anti-mouse IgG-HRP
T2 construct: Bought reagent; also called Human recombinant BCMA protein; BCMA antigen (Novoprotein cat: CS79); not shown: Fc tag
T2 sequence (looked up): T1 sequence (looked up)
Experimental: Dilute BCMA antigen (Novoprotein cat: CS79) with PBS to 0.5 ng/μl; add 100 μl/well of antigen to a 96-well flat-bottom ELISA plate (Maxisorp), seal with cling film, and store at 4° C. overnight; pour off the antigen the next day. After that, wash with PBS (200 μl/well), pour off the PBS, pat dry on absorbent paper and add 200 μl of blocking solution to each well and block at room temperature for 2 hours. After blocking, pour off the blocking solution and pat dry on absorbent paper; add 50 μl of HRP-conjugated goat anti-mouse IgG secondary antibody diluted in diluent, place at room temperature for 1 hour, then pour off the liquid and wash 5 times with washing solution (200 μl/well), finally pour off the washing solution and pat dry on absorbent paper; add 50 μl/well of TMB-hydrogen peroxide urea solution substrate solution and place it at room temperature for 3-5 minutes, add 50 μl/well of 0.25M sulfuric acid to stop the reaction, the optical density was measured by obtaining the absorbance with a 450 nm filter under a multifunctional microplate reader.

Kd [1]: 0.0409 nM
koff [1]: 2.34e-05 s⁻¹
kon [1]: 573000 M⁻¹ s⁻¹
OD450 [2]: 2.2
B1: anti-human BCMA monoclonal antibody 20A9 (antibody, human IgG1, kappa, V domains shown)
VH: QVQLVQSGAEVKKPGASAKVSCKASGYTFTSYAMQWVRQAPGQRLEWMGWINAGNGNIKYSQKFQGRVTITRDTSASTAYMELSSLRSEDTAVYYCARGGRLELDVYYYFYYMDVWGKGTTVTVSS
VL: DIVMSQSPDSLAVSLGERTTINCKSSQSVLHSSQNKNYLAWYQQKPGQPPNPLIHWASTRESGVPDRFSGSGSGTDFTLTISSLQAEDVAVYYCQQYYRVPFTFGPGTKVDIKR
notes: Tested as hybridoma supernatant (ELISA) or Protein G-purified hybridoma antibody (SPR); constant region of the tested hybridoma material is uncertain (anti-mouse IgG secondary used)

Kd [1]: 0.0885 nM
koff [1]: 4.28e-05 s⁻¹
kon [1]: 483000 M⁻¹ s⁻¹
OD450 [2]: 2.49
B2: anti-human BCMA monoclonal antibody 15H6 (antibody, human IgG1, kappa, V domains shown)
VH: B1 VH with I58T, V106I
VL: B1 VL
notes: as for B1

Kd [1]: 0.0345 nM
koff [1]: 1.63e-05 s⁻¹
kon [1]: 472000 M⁻¹ s⁻¹
OD450 [2]: 2.71
B3: anti-human BCMA monoclonal antibody 11G1 (antibody, V domains shown)
VH: EVQLVESGGGLVQPGRSLRLSCEASGFTFDDYAMHWVRQPPGKGLEWVSGISWNSDNIGYADSVKGRFTISRDNAKNSLYLQMNSLRAEDTALYYCAKIQSGSSFDYWGQGTLVTVSS
VL: DIQMTQSPSSLSASVGDRVTITCRASQSIINFLNWYQQKPGKAPKLLIYGASNLQSGVPSRFSGSGSGTDFTLTISSLQPEDFATYCCQQSSSIPLTFGGGTKVEIKR
notes: as for B1

Kd [1]: 0.125 nM
koff [1]: 6.02e-05 s⁻¹
kon [1]: 480000 M⁻¹ s⁻¹
OD450 [2]: 2.12
B4: anti-human BCMA monoclonal antibody 15A7 (antibody, human IgG1, kappa, V domains shown)
VH: EVQLVESGGGLVQPGGSLRLSCEASGFTFDDCAMHWVRQTPGKGLEWVSGISWNSDTMGYADSVKGRFIISRDNAKNSLYLQMNSLRVEDTALYHCTRVRAAVFDYWGQGVLVTVSS
VL: DIHMTQSPSSLSASVGDRVTITCRASQSISSYLNWFQQKPGKAPTVLIYAASSLQSGVSSRFSGRGSGADFTLTISSLQPEDFASYFCQQSFSPLYIFGQGTKVEIKR
notes: as for B1

Kd [1]: 0.0483 nM
koff [1]: 2.78e-05 s⁻¹
kon [1]: 576000 M⁻¹ s⁻¹
OD450 [2]: 3
B5: anti-human BCMA monoclonal antibody 31F5 (antibody, V domains shown)
VH: EVQLVESGGGLVQPGRSLRLSCAASGFTFDDYAMHWVRQAPGKGLEWVSGISWNSDNIAYADSVKGRFTISRDNAENSLYLQMNSLRTEDTAIYYCAKVAAATFDYRGQGTLVTVSS
VL: DIQMTQSPSSLSASVGDRVTITCRASQSISSYLNWYQQKPGKAPKLLIFAASSLQSGVPSRFSGSGSGTDFTLTISSLQPEDFATYSCQQSFSIPFTFGPGTKVDIKR
notes: as for B1

Kd [1]: 0.0656 nM
koff [1]: 5.29e-05 s⁻¹
kon [1]: 807000 M⁻¹ s⁻¹
B6: anti-human BCMA monoclonal antibody 20A2 (antibody, human IgG1, kappa, V domains shown)
VH: QIQLVQSGAEVKKPGASVKVSCKASGYTFTAYYLHWVRQSPGHGLEWMGRIYPNSGDTNYAQKFQGRVTMTRDTSINTAYMELSRLRSDDTALYYCARGFNWNYEGGFDIWGQGTMVTVSS
VL: DVVMTQSPLSLSVTLGQPASISCRSGQSLVYSDGNTYLNWFQQRPGQSPRRLIYKLSSRDSGVPDRFSGSGSGTDFTLKISRMEAEDVGVYYCMQRTHWPPTFGQGTKVEIKR
notes: as for B1

Kd [1]: 0.0504 nM
koff [1]: 2.57e-05 s⁻¹
kon [1]: 510000 M⁻¹ s⁻¹
OD450 [2]: 2.3
B7: anti-human BCMA monoclonal antibody 7E11 (antibody, human IgG1, kappa, V domains shown)
VH: EVQLVESGGGLVQPGGSLRLSCAASGFTFSYYDMHWVRQGTGKGLEWVSGIGTSGDTYYPDSVKGRFTISRENAKNSLNLQMNSLRDGDTAMYYCARGPYYYNSSGYYSYDALDIWGQGTMVTVTS
VL: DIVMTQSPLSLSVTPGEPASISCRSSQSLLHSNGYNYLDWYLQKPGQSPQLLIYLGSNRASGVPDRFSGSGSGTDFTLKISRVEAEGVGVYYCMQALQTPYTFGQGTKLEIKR
notes: Tested as hybridoma supernatant (ELISA) or Protein G-purified hybridoma antibody (SPR)

Kd [1]: 0.146 nM
koff [1]: 7.01e-05 s⁻¹
kon [1]: 481000 M⁻¹ s⁻¹
OD450 [2]: 2.86
B8: anti-human BCMA monoclonal antibody 23C4 (antibody, human IgG1, kappa, V domains shown)
VH: EVQLVESGGGLVQPGRSLRLSCAASGFTFADHAMHWVRQAPGKGLEWVSGISWNSDHIGYADSVKGRFTISRDNAKNSLYLQMNSLRPEDTALYYCAKDIFSPTGDGYWGQGTLVTVSS
VL: DIQMTQSPSSLSASVGDRVTITCRASQDIRNNLGWFQQKPGKTPKRLIYAASSLQSGVPSRFSGSGSGTEFTLIISSLQPEDFATYYCLHHNSYPPTFGQGTKVEIKR
notes: as for B1

Kd [1]: 0.0117 nM
koff [1]: 7.22e-05 s⁻¹
kon [1]: 6.18e+06 M⁻¹ s⁻¹
OD450 [2]: 2.59
B9: anti-human BCMA monoclonal antibody 27A7 (antibody, human IgG1, kappa, V domains shown)
VH: B8 VH with A30D, D56V, P88A, G107D
VL: B8 VL with I74T
notes: as for B1

Kd [1]: 0.0477 nM
koff [1]: 2.43e-05 s⁻¹
kon [1]: 510000 M⁻¹ s⁻¹
OD450 [2]: 2.4
B10: anti-human BCMA monoclonal antibody 18D10 (antibody, human IgG1, kappa, V domains shown)
VH: EVRLVESGGGLVQPGRSLRLSCAASGFTSNDYAMHWVRQAPGRGLEWVSGISWNSDSIGYADSVKGRFTISRDNAKNSLYLQMNSLRTEDTALYYCATVVSAYFDYWGQGTLVTVSS
VL: DIQMTQSPSSLSASVGDRVTITCRTSQSISTYLNWYQQKPGKAPKLLIYAASSLKSGVPSRFSGSGSGTDFTLTISSLQPEDFATYFCQGSYIIPLTFGGGTRVEIKR
notes: as for B1

Kd [1]: 0.253 nM
koff [1]: 0.000269 s⁻¹
kon [1]: 1.06e+06 M⁻¹ s⁻¹
OD450 [2]: 2.55
B11: anti-human BCMA monoclonal antibody 11B10 (antibody, human IgG1, kappa, V domains shown)
VH: QVQLVQSGAEVKKPGASVKVSCKASGYTFTSYAMHWVRQAPGQRLEWMGWINTGNGNTKYSQKFQGRVTITRDTSASTAYMELSSLRSEDTAVYYCARGGSITGNIFYYYYYMDVWGKGTTVTVAS
VL: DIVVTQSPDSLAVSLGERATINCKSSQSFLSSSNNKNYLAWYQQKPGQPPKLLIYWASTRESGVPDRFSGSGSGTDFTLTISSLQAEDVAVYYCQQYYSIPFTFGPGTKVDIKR
notes: as for B1
